Measured values published in the supplement of paper PMC9170038.

Tested on: MS2 coat protein
Test: apparent KD of MS2 coat protein; designed switch direction (-1 OFF switch, 1 ON switch): 1; higher = weaker reporter binding
Outline: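 SNAP-549-labelled MS2 coat protein was titrated, doubling from 0.7 or 1.5 nM to 3 µM, over designed RNA switches transcribed on Illumina chips by stalled E. coli RNA polymerase. Runs were done without input, with 200 uM small-molecule ligand, or with an oligonucleotide input. Apparent KD is the per-design median over clusters of curve-fitted normalised fluorescence.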

[1] = input ligand: microRNA oligo, concentration not stated
[2] = Eterna round: R95, input ligand: microRNA oligo, concentration not stated
[3] = Eterna round: R95, input ligand: FMN 200 uM
[4] = Eterna round: R95, input ligand: none

Sequence | apparent KD of MS2 coat protein (input ligand: FMN 200 uM) [nM] | apparent KD of MS2 coat protein [1] [nM] | apparent KD of MS2 coat protein (input ligand: none) [nM] | apparent KD of MS2 coat protein [2] [nM] | apparent KD of MS2 coat protein [3] [nM] | apparent KD of MS2 coat protein [4] [nM]
GGUGACUUAAGAGGAUAUCCCGUAACAUUCGUCGAUACGAGACAUGAGGAUCACCCAUGUGAAAUGGAGAAGGCUUUCGCAAAG [Eternabot solution 48] (Eterna round: R96, puzzle: Same State NG 2) | 52.7 | 40 | 58.2 | – | – | –
GGUGCCAAAUAAGCCUACAUGAGGAUCACCCAUGUAUGUAGGCAGGAUAUCGUAUGCAAAGCAUACGAGAAGGGCCGAGGCACC [Mat - Same State NG 3 - JL Mod - D57] (Eterna round: R96, puzzle: Same State NG 3) | 23.8 | 29.3 | 47.1 | – | – | –
GGUGGGUUACUACCAACACAUGAGGAUCACCCAUGUUUUGGGAAGGAUAUGGUACCUAUUUGGUACCAGAAGGUCCAGUUAAUG [salish99_SSNG3_r04_702] (Eterna round: R96, puzzle: Same State NG 3) | 51.4 | 29.5 | 41.7 | – | – | –
GGUGGGUUACUACCAACACAUGAGGAUCACCCAUGUUUUGGGAAGGAUAUGGUACCUAUUUGGUACCAGAAGGUCCUGUUGGUG [salish99_SSNG3_r04_706] (Eterna round: R96, puzzle: Same State NG 3) | 36.6 | 105 | 116 | – | – | –
GGUGGGUUGCUGCCGGCACAUGAGGAUCACCCAUGUUUUGGGAAGGAUAUGGUACCUAUUUGGUGCCAGAAGGUCCCGUUGGUG [salish99_SSNG3_r04_710] (Eterna round: R96, puzzle: Same State NG 3) | 402 | 376 | 480 | – | – | –
GUACAACAUGAGGAUCACCCAUGUAUAUAUAUACGAGGAUAUGCAUGUACGAAAGUAUAUGCAGAAGGCGUUGUAC [Pin2Pin] (puzzle: Same State 1) | – | – | – | 75.4 | – | –
GUAGAUAUAACGGAGGAUAUUCAAUGAGAGACAUGAGGAUCACCCAUGUGAGAGUGAGAUGAUAGGAAGAAGGCUGAGAGAGAUG [Altered State 2-7 - Jieux - Same State 2] (puzzle: Same State 2) | – | – | – | 70.3 | 94.2 | 64.7
GUAGCAUACCGAGGAUAUUCAUAUAAUAACAUGAGGAUCACCCAUGUAUAUAGGCGAAAGCCUUGGGAGAAGGCGGAAUGCUAC [Xeonanis - 20 Mod64] (Eterna round: R96, puzzle: Same State NG 2) | 17.1 | 18.9 | 31 | – | – | –
GUAGGACAUGAGGAUCACCCAUGUGGGAGGGAACGAGGAUAUGUGAUUAGCGAGGAGAGGACAGAAGGCGUGGUAG [JR_SS1_Sub024] (puzzle: Same State 1) | – | – | – | 35.4 | 55.2 | 50.8
GUAUAACAUGAGGAUCACCCAUGUCAUCUAAGUCGAGGAUAUGGGAAUUAAUUAAUUAAACCAGAAGGCGAAAAUU [Mat - Same State 1 - D92] (puzzle: Same State 1) | – | – | – | 364 | 79 | 492
GUGAAACAUGAGGAUCACCCAUGUAUGACGGGCACAGGAUAUCGUGGUUCGCUCAUACUACGAGAAGGGUGAAAAG [Inordien] (puzzle: Same State 1) | – | – | – | 18 | 20.5 | 18.9
GUGCUCGUGUAAGGAUAUGCAGCCGUUUCGGCUGCAGAAGGUACUAUAAUACAUGAGGAUCACCCAUGUCUCUAUAAUUUGGUG [salish99_SSNG1_r04_904] (Eterna round: R96, puzzle: Same State NG 1) | – | 107 | – | – | – | –
GUGCUCGUGUGAGGAUAUGCGGCCGGGUCGGCUGCAGAAGGUACUAUUAUACAUGAGGAUCACCCAUGUCGCUUUUCUCCGGUG [salish99_SSNG1_r04_919] (Eterna round: R96, puzzle: Same State NG 1) | 62.5 | 41.2 | 49 | – | – | –
